Source: the DeepSol protein solubility set

Test: soluble on expression in E. coli; label from the status in PepcDB or PDB records

| Sequence | soluble on expression in E. coli |
| --- | --- |
| MAHHHHHHMDHRRSGLVLSLRYRCDGPVGTVETRRLTHVGTRSRARSAELARVRRALLVLLLPQRMKGLGQRLGDIRPREREGPGCRAQPWRASVVPRPARASLPPPKASGCFYAVHHHDKSSRLSVTATTAHDSSMRAPPSSVLRWTFTCVSSPRSTTAAAQTYHRPLHHPSQGFTTPRGRGRSAIHTHTHTHTHTHTHTHTHTHTHTRLSFNVRGPCEEHPHAPAACCIPLFLCCDAPAVSAAAAMSLQVNLLNNTFANPFMNAAGVMCTTTEELVAMTESASGSLVSKSCTPALREGNPTPRYQALPLGSINSMGLPNNGFDFYLAYAAEQHDYGKKPLFLSMSGLSMRENVEMCKRLAAVATEKGVILELNLSCPNVPGKPQVAYDFDAMRQCLTAVSEVYPHSFGVKMPPYFDFAHFDAAAEILNEFPKVQFITCINSIGNGLVIDAETESVVIKPKQGFGGLGGRYVLPTALANINAFYRRCPGKLIFGCGGVYTGEDAFLHVLAGASMVQVGTALQEEGPSIFERLTSELLGVMAKKRYQTLDEFRGKVRTLDGTAESTR | not soluble |
| MENRYSVHPEQVKRFTTEELRSHFLMDSLFTENKLTMYYSHEDRVVIGGAAPGQSELKLDAGDFLKTDFFLERREIGIINVGQPGAVRVGDDEYVLQTKDFLYIGMGNQDVSFSSLNGEKAKFYFVSACAHKSYPTQKAALSELTPDRLGDDAASNVRSLYKVIHQDGIKSCQLMMGITMLDQNNNWNTMPAHVHDRRMEAYLYLDLEKDSKVFHFMGQPDETRHLVVGNEQAVLSPAWSIHSGAGTSNYSFVWAMAGENYTFTDMDLIPMDGLK | not soluble |
| MDKLKFGLVSLGCDKNRVDSEIILGSMNRDYEIVNDPREADVILVNTCGFIESAKQESINTILEMNKYKEKYNCKMLIATGCLTQRYGKELKELVPEIDAILGVNDYKSLDDAIEDFFNLGKKDIYCNYSDQSINEGKRIITTGEYSSYVRISEGCNNSCSYCIIPKIRGKYRSRQFENIIDEVRELSENGTKEVILIAQDTTRYGVDLYGRKRLHELLKEMSLIQGIEWIRIMYCYPEEITEELIEEIASNEKVCNYIDMPIQHISDNILKNMFRKTRKSEILDKVEKIRKKVPNIAIRTSLIVGFPGETEGDFNELCDFVKDANINNLGVFRYSREEGTKAALMPMQIADTVKEKREEDIMLIQQQVSKNLNAKKIGKVYKVIVEGFNGDYWYGRNFEMAPEIDGKVFFKSQSEIKVGSFINIKITENLEYDLIGVVYNEFSKLEHHHHHH | soluble |
| MSLAAVQVVGSWPSVQPREAPREAIPERGNGFRLLSARLCALRPDDSSSARTEIHLLFDQLISENYSEGSGVAPEDVSALLVQACRLVPLNQNHLVSKVSQLIHHLLNRLQVIVDEQHLDFLLAYTISAIHQCSSWTHREILQALAALVYCNGSKCQKYLPELLGNTGLLMKLSDLAQSDPEVRRAAVHCMANLCLSVPGQPYLEEPYQNVCFQAFLTILQSPKSSDMDDITFCMLLQNALKGIQSLLNGGRMKLTQTDELGALLAVLKKFMFHGLPGLNIEMPTVLYPTPLPQYDGRTPIKEGHHHHHH | not soluble |
| SNASAFTEGTDYMVLEKPIPNADKTLIKVFSYACPFCYKYDKAVTGPVSDKVADLVTFTPFHLETKGEYGKQASEVFAVLIAKDKAAGISLFDAKSQFKKAKFAWYAAYHDKKERWSDGKDPAAFIKTGLDAAGMSQADFEAALKDPAVQETLEKWKAAYDVAKIQGVPAYVVNGKYLIYTKNIKSIDSMAELVRELATKK | soluble |
| MSLRYTKEQCTAAEAQRLAQEIAFGPVVFQVSRLMLKFGIFQLLSGKREGYTLQEISGRTGLTRYAAQVLLEASLTIGTILLEEDRYVLAKAGWFLLNDKMARVNMEFNHDVNYQGLFHLEEALLNGRPEGLKVFGEWPTIYEGLSQLPEQVQKSWFGFDHFYSDQSFGKALEIVFSHHPKRLLDIGGNTGKWATQCVQYNKEVEVTIVDLPQQLEMMRKQTAGLSGSERIHGHGANLLDRDVPFPTGFDAVWMSQFLDCFSEEEVISILTRVAQSIGKDSKVYIMETLWDRQRYETASYCLTQISLYFTAMANGNSKMFHSDDLIRCIENAGLEVEEIQDNIGLGHSILQCRLKEGHHHHHH | soluble |
| MDVTCNIKNGRCEQFCKNSADNKVVCSCTEGYRLAENQKSCEPAVPFPCGRVSVSQTSK | soluble |
| GSHMSQGSGEGEGVQLTAAQELMIQQLVAAQLQCNKRSFSDQPKVTPWPLGADPQSRDARQQRFAHFTELAIISVQEIVDFAKQVPGFLQLGREDQIALLKASTIEIMLLETARRYNHETECITFLKDFTYSKDDFHRAGLQVEFINPIFEFSRAMRRLGLDDAEYALLIAINIFSADRPNVQEPGRVEALQQPYVEALLSYTRIKRPQDQLRFPRMLMKLVSLRTLSSVHSEQVFALRLQDKKLPPLLSEIWDVHE | soluble |
| RTDTIMVLHIPSSGKATLMSIPRDSYVEIPGYGMDKINASFTYGGAPLLTQTVENATGLRINHYAEIGMGGLANVVDAVGGIEVCPAEPIDDPLAGLNIAAGCQKVDGPTALGYVRTRHTALGDLDRVQRQREFFAALVNKVTS | not soluble |
| MEFDKGQTLGNFIDRIRLNGYNTECVFNQSICQDIKNHYKQQCCAMCGVRGNSENTQIEVDHKDGRKDDSRVSDLSTQAFDDFQALCKACNDKKRQICKKCKETGYRFDARKIPGNHYSFYEGEAEYDGCVGCYQYDPIQYRKTCNDRIYNEGYQKGYSDGYQIGYHQKTTL | not soluble |
| MAHHHHHHMLTSTAYGMELQARAIAPFYHSSNNSSSTHRFVAGTACFAGGNVIRLLTFQEESQLLECTATWSHEEEIFGLWSSPSVAGPSLLAVGASSYCRIFRVSDDVSGELEPVVNFNAAAAQVLWDLEGLQNEVKLISEDSLRIYSLTEGKMGEEIGRFRVDGCAELRCAALDPHHSSVCLAAGEGIGIAVIDTRRKGPIVMPNTTTLHGLGMIQSIDFSNAREGLFMTAGTDGVIMWHDFRMDGEKSVVERRGYLDAHDHCVQRSLFNPFHDELLISCGSDHTLKLWDTSKKGADGECAVCVSKLSDFAESVVACCWSNSNPWVFAGLSYNGRVLVDSVPEECKMQFIGKEG | not soluble |
| MGSDKIHHHHHHAIRANVMASNVDSLYSKVDTLSEQSKKNNVVREEFDYSALSFYVENFAKEYLNYNSKASDEAKKARIDRLSKYLSLDVKDVDETENLQGNVLRTFKNTSLSRIEKMEDCYLVYLNVNYELEKDKKTENVTQNMVLPIQVKDNLFSIVGRPYFVASSLPQGKTVSLKQTENSIDVDGKEKQSIEKFLKMFFTKYSVGNKQELMLLMKNPTTTAGQDSFVSIDSGDMKFFDTKQKGVTGVQVSVTFSDKTTKLTHTEDFSLWLSKTENSYFINTMKHYFTEKEGND | not soluble |
| LEKMQAHGLDKVEYKVCTNPGMEPDSLNKIASGGELSRISLAIQMITAQKGSTPTLLFDEVDVGIGGSTAALVGKMLRKLGERLQVFCVTHQPQVAASAHHHFLVTKHSNNNQTFTHISLLKASDKIAEIARMMGGLTITEQTLSHAKELISLSNE | not soluble |
| MAQSETVERILDAAEQLFAEKGFAETSLRLITSKAGVNLAAVNYHFGSKKALIQAVFSRFLGPFCASLEKELDRRQAKPEAQHATLEDLLHLLVSQAMAVKPRSGNDLSIFMRLLGLAFSQSQGHLRKYLEEVYGKVFRRYMLLVNEAAPKLPPIELFWRVHFMLGAAAFSMSGIKALRAMAETDFGVNTSTEQVMHLMVPFFAAGMRAESGIDDPLLAGAQLRPRNKTPAKA | soluble |
| MRRVTEAAIPDNDGDEQPPVIPRYDPTSNFDAQRAQQQHPQSRPVYSTPAQMIRTTQPGGVKHNVILMKASDGTQKMVLKPGQFPPGTVISTGQRVVPYRQPTAVQQRQLYTATPGTRVVRIPNANGGAPRQQDHQVMRRVVQASGPRAMEYMDDQGTPPPGQQVRYVLQGGNSGTPNVNPPKVSSRGGPRGGLTMQMVQQQQQHNPVLDVMFSQVCRWDRQYGWSKTHVKRARQKNDSDKMHLRKFRMNQRELLITDHMERLKKEINKRRTRMENEAEQQCGLLTPWRKARARPHRAAKPKAEVKKEVINPADITLGGDTYDYVKEQKPTESIATNVSRRRRTSANLSKSEDDRDKPESQSTAPKSKERRTSEPPASHVAFHTPGSATPHDINLSIEHCTCQKIFDASKLYIQCELCARWYHGDCVGVAEQTILGLEHWSCEECIEEQERVKDQPALYCVCQKPYDDTKFYVGCDSCQGWFHPECVGTTRAEAEQAADYNCPACTREAEGYESEASDVSGSSRVSVQLTRADYTHVFELLELLLEHRMSTPFRNPVDLNEFPDYEKFIKKPMDLSTITKKVERTEYLYLSQFVNDVNQMFENAKTYNPKGNAVFKCAETMQEVFDKKLIDVREQMTARQQMLLLATAQQQDPMSSIRKRVQSESQRTVDSLDIDSDQLLPLDANLMRLYDF | not soluble |
| GMWSYDKITDYLMNNLGEKRYKHSLGVMDTAVRLAGIYNEDTEKARIAGLVHDCAKKLPGEKIIEICTNEGYELGDEDIRNSYLLHGLAGRILAKKVIGIDDEDVLNAIEFHTTGRPNMSLLEKIIYIADYIEPGREFKGVDELRKAADEDLNKALLMSFDNTIKFVIDKGGFLHHNTIEARNYLISRKG | soluble |
| MARTVDLELEAQIDILRDNNKKYENILKLAQTLSTQLFQMVHTQKQLGDAFADLSLKSLELHEKFGYNADTQKLLAKNGETLLGAINFFIASVNTLVNKTIEDTLMTVKQYENARVEYDAYRTDLEELNLGPRDANTLPKIEQSQHLFQIHKEKYDKMRSDVSVKLKFLEENKVKVLRNQLVLFHSAVAAYFAGNQKQLELTLKQFHVRLKTPGVDAPSWLEEQ | soluble |
| MGSDKIHHHHHHMQIDDFASNLRLLCSTESSVSAVCRQIGVNRQQFSKYLSGAARPSPSNMRKIAVHFGVRPAEFMLPADEFESHPSVAGKLVGPSVTHSDRDGFESAFRGQTIPLRRYLGYYLSYFLTQSWENSIICAIVRLDEVNGLIRCRSLERSIDPDDGSLYLSKYDGRVAMLGNRIFVMEYQTLARDALVETVLYPVGRGQLQYLRGTTFGITSRQRTPFTSPVVWRYLDDFPTLRDVMRKVGRYDINSAKLDPTARSILLGGHNKGTD | not soluble |
| MSLQNVESELKDIRLPYKTKSLCPECLKILEAEVYEENGKVMIRKVCEEHGEFVDVYWGDAEMFKKAARFAADGHGISTPITQNTTCPFSCGLCNNHKSHTALLNIVLTNRCDLACWYCFFYARRAGYVYEPTIEQIREMVRKAKNMKPIGCNAVQLTGGEPTLRDDLIDIIRMIKEEGYDHIQLNTNGIRLAEDPDFALRVRVAGVNTVYLSFDGVDEKTNPKNHHEIPKILENCRRAQLGLVLVPTVIKGVNDHQLGDIIRFAAENIDIVRGVNFQPVSLVGSMPRKEREQFRITIPDCIKAIEEQTNGEIGREDFYPVPSVVPISRFVEALTGQPQYELTTHFACGMATYIFKDNGRLIPITRFVDVEGLFEFLNEKAEEIAKSRMKTIRAIKDIIDLRKFVDTSKAPKGFNIAKILYEVLIKHDYSTLGEFHVKSLFIGMMHFQDLYNYDIARVERCEIHYGSPDGRIIPFCTFNVIPERYRDAIHEKYGIPIEEWEKRTGRKLKDDIKRAVRRPEGHHHHHH | soluble |
| MKVNIDPTAPTFATYRRDMRAEQMAEDYPVVSIDSDALDAARMLAEHRLPGLLVTAGAGKQYAVLPASQVVRFIVPRYVQDDPLLAGVLNESTADRCAERLSGKKVRDVLPDHLVEVPPANADDTIIEVAAVMARLRSPLLAVVKDGSLLGVVTASRLLAAALKT | soluble |
| GSPEETLVIALYDYQTNDPQELALRCDEEYYLLDSSEIHWWRVQDKNGHEGYAPSSYLVEKSP | soluble |
| MVRTVKSYNGEADDLAGQIHTLPAVWVTYGGSKVEPASTGGVCGRYQDTAEFVVMVAARNLRNEQAQRQGGIDSREIGSNDLIRAVRRLLDGQRLGFADSRGLVPKAVRAIANHVLVQNAAVSIYAVEYAIRFNTCGLENDRYPERTDNPDDPNHIFTKYQGTLSEPWPDFEGLDGKIYDPQSADEIPVNLTLKDKQ | not soluble |
